The values below are quoted from earlier work in article PMC7553146.

Data set [1] has as its target His41 (UniProt position 3281, VYCPRHVICTA).
The target in data set [2] is Cys145 (UniProt position 3385, FLNGSCGSVGF).

For “3C-like main protease (3CL Mpro, nsp5) (Severe acute respiratory syndrome coronavirus (SARS-CoV))”, the pKa (as a rule, the pH at which an ionisable group is half protonated) in data set [1] is recorded as 6.3 ± 0.1; in data set [2] it was 8.0 ± 0.3.
